Test results published in article PMC8298264, “Function of cofactor Akirin2 in the regulation of gene expression in model human neutrophil-like HL60 cells” (Bioscience Reports, 2021).

tested on: human HL60 cells; experiment: SWATH-MS proteomics, differential protein representation, akirin2 KO vs WT HL60 cells; format: cell-based; conditions: SWATH-MS, akirin2 KO vs WT HL60 cells; over-represented in KO
Method in brief: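 Three biological replicates per genotype; 150 µg protein FASP/trypsin digested; IDA library (3 µg digest); SWATH variable windows, 5 µg/sample, 3.6 s cycle; gradient 5–30% B 120 min then 30–60% B 15 min; 1% global FDR; TAS normalization.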

Molecule | Fold Change | Log (Fold Change)
Azurocidin (protein, UniProt P20160 27-248, looked up) Azurocidin: IVGGRKARPRQFPFLASIQNQGRHFCGGALIHARFVMTAASCFQSQNPGVSTVVLGAYDLRRRERQSRQTFSISSMSENGYDPQQNLNDLMLLQLDREANLTSSVTILPLPLQNATVEAGTRCQVAGWGSQRSGGRLSRFPRFVNVTVTPEDQCRPNNVCTGVLTRRGGICNGDGGTPLVCEGLAHGVASFSLGPCGRGPDFFTRVALFRDWIDGVLNNPGP | 2.563 | 0.4087
Spartin (protein, UniProt Q8N0X7 1-666, looked up) Spartin: MEQEPQNGEPAEIKIIREAYKKAFLFVNKGLNTDELGQKEEAKNYYKQGIGHLLRGISISSKESEHTGPGWESARQMQQKMKETLQNVRTRLEILEKGLATSLQNDLQEVPKLYPEFPPKDMCEKLPEPQSFSSAPQHAEVNGNTSTPSAGAVAAPASLSLPSQSCPAEAPPAYTPQAAEGHYTVSYGTDSGEFSSVGEEFYRNHSQPPPLETLGLDADELILIPNGVQIFFVNPAGEVSAPSYPGYLRIVRFLDNSLDTVLNRPPGFLQVCDWLYPLVPDRSPVLKCTAGAYMFPDTMLQAAGCFVGVVLSSELPEDDRELFEDLLRQMSDLRLQANWNRAEEENEFQIPGRTRPSSDQLKEASGTDVKQLDQGNKDVRHKGKRGKRAKDTSSEEVNLSHIVPCEPVPEEKPKELPEWSEKVAHNILSGASWVSWGLVKGAEITGKAIQKGASKLRERIQPEEKPVEVSPAVTKGLYIAKQATGGAAKVSQFLVDGVCTVANCVGKELAPHVKKHGSKLVPESLKKDKDGKSPLDGAMVVAASSVQGFSTVWQGLECAAKCIVNNVSAETVQTVRYKYGYNAGEATHHAVDSAVNVGVTAYNINNIGIKAMVKKTATQTGHTLLEDYQIVDNSQRENQEGAANVNVRGEKDEQTKEVKEAKKKDK | 2.789 | 0.4455
Non-secretory ribonuclease (protein, UniProt P10153 28-161, looked up) Non-secretory ribonuclease: KPPQFTWAQWFETQHINMTSQQCTNAMQVINNYQRRCKNQNTFLLTTFANVVNVCGNPNMTCPSNKTRKNCHHSGSQVPLIHCNLTTPSPQNISNCRYAQTPANMFYIVACDNRDQRRDPPQYPVVPVHLDRII | 2.742 | 0.4381
Protein Churchill (protein, UniProt Q8WUH1 1-112, looked up) Protein Churchill: MCGDCVEKEYPNRGNTCLENGSFLLNFTGCAVCSKRDFMLITNKSLKEEDGEEIVTYDHLCKNCHHVIARHEYTFSIMDEFQEYTMLCLLCGKAEDTISILPDDPRQMTLLF | 2.847 | 0.4544
Cystatin-F (protein, UniProt O76096 20-145, looked up) Cystatin-F: GPSPDTCSQDLNSRVKPGFPKTIKTNDPGVLQAARYSVEKFNNCTNDMFLFKESRITRALVQIVKGLKYMLEVEIGRTTCKKNQHLRLDDCDFQTNHTLKQTLSCYSEVWVVPWLQHFEVPVLRCH | 2.6697 | 0.4265
Serglycin (protein, UniProt P10124 28-158, looked up) Serglycin: YPTRRARYQWVRCNPDSNSANCLEEKGPMFELLPGESNKIPRLRTDLFPKTRIQDLNRIFPLSEDYSGSGFGSGSGSGSGSGSGFLTEMEQDYQLVDESDAFHDNLRSLDRNLPSDSQDLGQHGLEEDFML | 2.81 | 0.4488

same assay, conditions: akirin2 KO vs WT HL60 cells; sheet "Over-represented in KO"

Molecule | Fold Change | Log (Fold Change)
sp¦P11766¦ADHX_HUMAN (protein, UniProt P11766 2-374, looked up) Alcohol dehydrogenase class-3: ANEVIKCKAAVAWEAGKPLSIEEIEVAPPKAHEVRIKIIATAVCHTDAYTLSGADPEGCFPVILGHEGAGIVESVGEGVTKLKAGDTVIPLYIPQCGECKFCLNPKTNLCQKIRVTQGKGLMPDGTSRFTCKGKTILHYMGTSTFSEYTVVADISVAKIDPLAPLDKVCLLGCGISTGYGAAVNTAKLEPGSVCAVFGLGGVGLAVIMGCKVAGASRIIGVDINKDKFARAKEFGATECINPQDFSKPIQEVLIEMTDGGVDYSFECIGNVKVMRAALEACHKGWGVSVVVGVAASGEEIATRPFQLVTGRTWKGTAFGGWKSVESVPKLVSEYMSKKIKVDEFVTHNLSFDEINKAFELMHSGKSIRTVVKI | 1.096 | 0.03978
sp¦P29218¦IMPA1_HUMAN (protein, UniProt P29218 1-277, looked up) Inositol monophosphatase 1: MADPWQECMDYAVTLARQAGEVVCEAIKNEMNVMLKSSPVDLVTATDQKVEKMLISSIKEKYPSHSFIGEESVAAGEKSILTDNPTWIIDPIDGTTNFVHRFPFVAVSIGFAVNKKIEFGVVYSCVEGKMYTARKGKGAFCNGQKLQVSQQEDITKSLLVTELGSSRTPETVRMVLSNMEKLFCIPVHGIRSVGTAAVNMCLVATGGADAYYEMGIHCWDVAGAGIIVTEAGGVLMDVTGGPFDLMSRRVIAANNRILAERIAKEIQVIPLQRDDED | 1.12 | 0.04931
sp¦Q99436¦PSB7_HUMAN (protein, UniProt Q99436 44-277, looked up) Proteasome subunit beta type-7: TTIAGVVYKDGIVLGADTRATEGMVVADKNCSKIHFISPNIYCCGAGTAADTDMTTQLISSNLELHSLSTGRLPRVVTANRMLKQMLFRYQGYIGAALVLGGVDVTGPHLYSIYPHGSTDKLPYVTMGSGSLAAMAVFEDKFRPDMEEEEAKNLVSEAIAAGIFNDLGSGSNIDLCVISKNKLDFLRPYTVPNKKGTRLGRYRCEKGTTAVLTEKITPLEIEVLEETVQTMDTS | 1.138 | 0.056
sp¦Q14019¦COTL1_HUMAN (protein, UniProt Q14019 2-142, looked up) Coactosin-like protein: ATKIDKEACRAAYNLVRDDGSAVIWVTFKYDGSTIVPGEQGAEYQHFIQQCTDDVRLFAFVRFTTGDAMSKRSKFALITWIGENVSGLQRAKTGTDKTLVKEVVQNFAKEFVISDRKELEEDFIKSELKKAGGANYDAQTE | 1.126 | 0.0517
sp¦Q92900¦RENT1_HUMAN (protein, UniProt Q92900 1-1129, looked up) Regulator of nonsense …: MSVEAYGPSSQTLTFLDTEEAELLGADTQGSEFEFTDFTLPSQTQTPPGGPGGPGGGGAGGPGGAGAGAAAGQLDAQVGPEGILQNGAVDDSVAKTSQLLAELNFEEDEEDTYYTKDLPIHACSYCGIHDPACVVYCNTSKKWFCNGRGNTSGSHIVNHLVRAKCKEVTLHKDGPLGETVLECYNCGCRNVFLLGFIPAKADSVVVLLCRQPCASQSSLKDINWDSSQWQPLIQDRCFLSWLVKIPSEQEQLRARQITAQQINKLEELWKENPSATLEDLEKPGVDEEPQHVLLRYEDAYQYQNIFGPLVKLEADYDKKLKESQTQDNITVRWDLGLNKKRIAYFTLPKTDSGNEDLVIIWLRDMRLMQGDEICLRYKGDLAPLWKGIGHVIKVPDNYGDEIAIELRSSVGAPVEVTHNFQVDFVWKSTSFDRMQSALKTFAVDETSVSGYIYHKLLGHEVEDVIIKCQLPKRFTAQGLPDLNHSQVYAVKTVLQRPLSLIQGPPGTGKTVTSATIVYHLARQGNGPVLVCAPSNIAVDQLTEKIHQTGLKVVRLCAKSREAIDSPVSFLALHNQIRNMDSMPELQKLQQLKDETGELSSADEKRYRALKRTAERELLMNADVICCTCVGAGDPRLAKMQFRSILIDESTQATEPECMVPVVLGAKQLILVGDHCQLGPVVMCKKAAKAGLSQSLFERLVVLGIRPIRLQVQYRMHPALSAFPSNIFYEGSLQNGVTAADRVKKGFDFQWPQPDKPMFFYVTQGQEEIASSGTSYLNRTEAANVEKITTKLLKAGAKPDQIGIITPYEGQRSYLVQYMQFSGSLHTKLYQEVEIASVDAFQGREKDFIILSCVRANEHQGIGFLNDPRRLNVALTRARYGVIIVGNPKALSKQPLWNHLLNYYKEQKVLVEGPLNNLRESLMQFSKPRKLVNTINPGARFMTTAMYDAREAIIPGSVYDRSSQGRPSSMYFQTHDQIGMISAGPSHVAAMNIPIPFNLVMPPMPPPGYFGQANGPAAGRGTPKGKTGRGGRQKNRFGLPGPSQTNLPNSQASQDVASQPFSQGALTQGYISMSQPSQMSQPGLSQPELSQDSYLGDEFKSQIDVALSQDSTYQGERAYQHGGVTGLSQY | 1.105 | 0.04317
sp¦Q13177¦PAK2_HUMAN (protein, UniProt Q13177 2-524, looked up) Serine/threonine-protein …: SDNGELEDKPPAPPVRMSSTIFSTGGKDPLSANHSLKPLPSVPEEKKPRHKIISIFSGTEKGSKKKEKERPEISPPSDFEHTIHVGFDAVTGEFTGMPEQWARLLQTSNITKLEQKKNPQAVLDVLKFYDSNTVKQKYLSFTPPEKDGFPSGTPALNAKGTEAPAVVTEEEDDDEETAPPVIAPRPDHTKSIYTRSVIDPVPAPVGDSHVDGAAKSLDKQKKKTKMTDEEIMEKLRTIVSIGDPKKKYTRYEKIGQGASGTVFTATDVALGQEVAIKQINLQKQPKKELIINEILVMKELKNPNIVNFLDSYLVGDELFVVMEYLAGGSLTDVVTETCMDEAQIAAVCRECLQALEFLHANQVIHRDIKSDNVLLGMEGSVKLTDFGFCAQITPEQSKRSTMVGTPYWMAPEVVTRKAYGPKVDIWSLGIMAIEMVEGEPPYLNENPLRALYLIATNGTPELQNPEKLSPIFRDFLNRCLEMDVEKRGSAKELLQHPFLKLAKPLSSLTPLIMAAKEAMKSNR | 1.114 | 0.04699
sp¦Q92945¦FUBP2_HUMAN (protein, UniProt Q92945 2-711, looked up) Far upstream element-binding …: SDYSTGGPPPGPPPPAGGGGGAGGAGGGPPPGPPGAGDRGGGGPGGGGPGGGSAGGPSQPPGGGGPGIRKDAFADAVQRARQIAAKIGGDAATTVNNSTPDFGFGGQKRQLEDGDQPESKKLASQGDSISSQLGPIHPPPRTSMTEEYRVPDGMVGLIIGRGGEQINKIQQDSGCKVQISPDSGGLPERSVSLTGAPESVQKAKMMLDDIVSRGRGGPPGQFHDNANGGQNGTVQEIMIPAGKAGLVIGKGGETIKQLQERAGVKMILIQDGSQNTNVDKPLRIIGDPYKVQQACEMVMDILRERDQGGFGDRNEYGSRIGGGIDVPVPRHSVGVVIGRSGEMIKKIQNDAGVRIQFKQDDGTGPEKIAHIMGPPDRCEHAARIINDLLQSLRSGPPGPPGGPGMPPGGRGRGRGQGNWGPPGGEMTFSIPTHKCGLVIGRGGENVKAINQQTGAFVEISRQLPPNGDPNFKLFIIRGSPQQIDHAKQLIEEKIEGPLCPVGPGPGGPGPAGPMGPFNPGPFNQGPPGAPPHAGGPPPHQYPPQGWGNTYPQWQPPAPHDPSKAAAAAADPNAAWAAYYSHYYQQPPGPVPGPAPAPAAPPAQGEPPQPPPTGQSDYTKAWEEYYKKIGQQPQQPGAPPQQDYTKAWEEYYKKQAQVATGGGPGAPPGSQPDYSAAWAEYYRQQAAYYGQTPGPGGPQPPPTQQGQQQAQ | 1.125 | 0.05126
